The record followed here is doi:10.1101/2021.08.20.457137 (bioRxiv, 2021).

The term Kd denotes a measure of binding affinity in units of concentration. Lower therefore signals a tighter complex.

The target of one test is lysozyme (Gallus gallus, UniProt P00698). Briefly: SEC. Background: In gel filtration, larger molecules generally elute earlier.
In test [1] the target is Lyso-Nb_4 W103A (alpaca scaffold, camel CDRs). As to the kind of experiment: SPR.
The target in test [2] is Lyso-Nb_4 L11A (alpaca scaffold, camel CDRs). Briefly: SPR. Background: Surface plasmon resonance follows binding to a sensor surface in real time, without labels.
Test [3] concerns the target Lyso-Nb_4 K43A (alpaca scaffold, camel CDRs). As to the kind of experiment: SPR.
The target in test [4] is Lyso-Nb_4 Y91A (alpaca scaffold, camel CDRs). As to the kind of experiment: SPR.
The target of test [5] is Lyso-Nb_4 S112A (alpaca scaffold, camel CDRs). As to the kind of experiment: SPR.
The target of test [6] is Lyso-Nb_4 P41A (alpaca scaffold, camel CDRs). As to the kind of experiment: SPR.
The target in test [7] is Lyso-Nb_4 R45A (alpaca scaffold, camel CDRs). As to the kind of experiment: SPR.
The next test addresses TC-Nb4 (alpaca). Briefly: SPR.
Test [8] deals with Lyso-Nb_4 V89A (alpaca scaffold, camel CDRs). Briefly: SPR.
The target in a further test is VcNorM (UniProt Q9KRU4). Briefly: SEC.

B1: Lyso-Nb_4 (VHH)
VHH: QRQLVESGGGLVQPGGSLRLSCAASGSTDSIEYMTWFRQAPGKEREGVAALYTHTGNTYYADSVKGRFIISRDKAKNMVYLQMNSLEPEDTAVYYCGATRKYVPVRFALDQSSYDYWGKGTPVTVSS
In the case of B1, the binding result with lysozyme is “binds”.

B2: NabFab (Fab, V domains shown)
VH: EVQLVESGGGLVQPGGSLRLSCAASGFNFSYYSIHWVRQAPGKGLEWVAYISSSSSYTSYADSVKGRFTISADTSKNTAYLQMNSLRAEDTAVYYCARGYQYWQYHASWYWNGGLDYWGQGTLVTVSS
VL: DIQMTQSPSSLSASVGDRVTITCRASQSVSSAVAWYQQKPGKAPKLLIYSASSLYSGVPSRFSGSRSGTDFTLTISSLQPEDFATYYCQQSSSSLITFGQGTKVEIK
Turning to B2, the fold reduction of affinity against Lyso-Nb 4 is less than 5 fold in test [1]; less than 5 fold in test [2]; less than 5 fold in test [3]; less than 5 fold in test [5]; 400 fold in test [6]; 600 fold in test [8]. In addition, the figures for the fold higher KD against Lyso-Nb 4 in test [4] and in [7] were more than 25 fold and more than 40 fold, respectively. The Kd with TC-Nb4 (alpaca) worked out at 0.86 nM.

B3: NorM-Nb17_4 (VHH)
VHH: QRQLVESGGGLVQPGGSLRLSCAASGIIFKINDMGWFRQAPGKEREGVAGITSGGRTNYADSVKGRFIISRDNVKNTVYLQMNSLEPEDTAVYYCKSDGLISYAASQLSTYWGKGTPVTVSS
On to B3, for which the binding result with VcNorM is recorded as “binds”.
